What was measured:
[1] = system: HL60; experiment: Cytotoxic activity, cell growth test using WST-8, HL60; type: cell-based; conditions: FIG. 6
Description: (§1) Acute myeloid leukemia cell line HL60 (American Type Culture Collection, Manassas, Va., USA) and Burkitt's lymphoma cell line BLTH (kindly gifted from Prof Hirose at The University of Tokushima, Br. J. Cancer (1987) 56: 413-417) were cultured in the presence of vincristine to obtain vincristine-resistant cell lines HL60-R and BLTH-R.
(§2) First, these tumor cells were used to examine their susceptibility to C3B3-DB. These tumor cells were cultured in the presence of various concentrations of C3B3-DB and then antitumor activity (cytotoxic activity) of C3B3-DB was measured by cell growth tests using WST-8 (Kishida Chemicals, Osaka).
(§3) In addition, whether or not drug resistance in chemotherapeutic agent-resistant tumor cells can be overcome (improved) was examined by culturing these cells in the presence or absence of C3B3-DB (0.1 μg/mL) for six hours and then adding vincristine.

[2] = system: BLTH; experiment: Cytotoxic activity, cell growth test using WST-8, BLTH; type: cell-based; conditions: FIG. 6
Description: as §1, §2, §3

[3] = system: parent cell lines; experiment: Daunorubicin uptake into cells (accumulation and efflux phase, flow cytometry), parent cell lines; type: cell-based; conditions: FIG. 8
Description: (§4) To elucidate the mechanism of overcoming drug (chemotherapeutic agent)-resistance using C3B3-DB, MDR1 expression on the cell surface was examined after treating these cells for six hours with C3B3-DB (0.1 μg/mL). […] Furthermore, treatment of these cells with C3B3-DB was followed by culturing these cells in the presence of daunorubicin (0.1 μg/mL, Meiji Seika, Tokyo) and the amount of daunorubicin uptake into cells were compared.
(§5) Specifically, uptake of the pharmaceutical agent into the cells (accumulation phase) was evaluated by culturing the cells for two hours in the presence or absence of C3B3-DB, then adding daunorubicin and culturing the cells for 30 minutes, washing the cells, and then measuring the PE intensity by flow cytometry. The cells were cultured for another 30 minutes to evaluate persistence of the pharmaceutical agent in the cells (efflux phase) in a same manner using flow cytometry.

[4] = system: vincristine-resistant cell lines; experiment: Daunorubicin uptake into cells (accumulation and efflux phase, flow cytometry), vincristine-resistant cell lines; type: cell-based; conditions: FIG. 8
Description: as §4, §5

[5] = system: HL60-R; experiment: Cytotoxic activity, cell growth test using WST-8, HL60-R; type: cell-based
Description: as §1, §2, §3

[6] = system: BLTH-R; experiment: Cytotoxic activity, cell growth test using WST-8, BLTH-R; type: cell-based
Description: as §1, §2, §3

[7] = system: MDR1; experiment: MDR1 expression on the cell surface after C3B3-DB treatment (flow cytometry); type: cell-based; conditions: six hours with C3B3-DB 0.1 μg/mL, chemotherapeutic agent-resistant cell lines, FIG. 7
From the text: MDR1 expression on the cell surface was examined by flow cytometry using anti-MDR1 antibody (UIC-2, Chemicon, Temecula, Calif., USA) and FITC-labeled goat anti-mouse IgG antibody (Biosource, Camarillo, Calif., USA). Mouse IgG (BD Biosciences, San Jose, Calif., USA) was used for the control antibody.
as §4

[8] = system: activated lymphocytes; conditions: cited from earlier work
[9] = system: human myeloma cells; conditions: various human myeloma cell lines; cited from earlier work
[10] = used alone, compared with 2D7 diabody used alone, Patent Document 5; cited from earlier work
[11] = system: multiple myeloma model mice generated by transplanting human myeloma cell line; conditions: cited from earlier work
[12] = C3B3-DB two hours then daunorubicin

CC[C@]1(O)C[C@H]2CN(CCc3c([nH]c4ccccc34)[C@@](C(=O)OC)(c3cc4c(cc3OC)N(C=O)[C@H]3[C@@](O)(C(=O)OC)[C@H](OC(C)=O)[C@]5(CC)C=CCN6CC[C@]43[C@@H]65)C2)C1 [vincristine, reference compound]
cell injury by vincristine ([1]; HL60, with or without C3B3-DB pre-treatment): concentration-dependent cell injury
cell injury by vincristine ([2]; with or without C3B3-DB pre-treatment): concentration-dependent cell injury

COc1cccc2c1C(=O)c1c(O)c3c(c(O)c1C2=O)C[C@@](O)(C(C)=O)C[C@@H]3O[C@H]1C[C@H](N)[C@H](O)[C@H](C)O1 [daunorubicin, reference compound]
amount of daunorubicin uptake into cells ([3]; daunorubicin 0.1 μg/mL, accumulation and efflux phase): a certain amount of daunorubicin was taken up
amount of daunorubicin uptake into cells ([4]; daunorubicin 0.1 μg/mL, both phases): significantly decreased

B1: C3B3-DB: C3B3 diabody, a low-molecular-weight antibody of the C3B3 antibody recognizing HLA class I (protein)
scFv: EVKLVESEGGLVQPGSSMKLSCTASGFTFSDHYMAWVRQVPEKGLEWVADINYDGSRTYYLDSLKSRFIISRDNGKNILYLQMSSLKSEDTATYYCARDRVRSSYYSNLFAMDYWGQGISVTVSSGGGGSDIQMTQTTSSLSASLGDRVTISCRASQDIANYLNWYQQKPDGTVKLLIYYTSRLHSGVPSRFSGSGSGTDYSLTISNLEPEDIATYYCQQYSKLPYTFGSGTKLEIK
modifications: left off: small tags and cut ends
cytotoxic activity enhancement of vincristine due to pre-treatment ([1]; HL60, C3B3-DB 0.1 μg/mL for six hours then vincristine): not observed
cytotoxic activity enhancement of vincristine due to pre-treatment ([2]; C3B3-DB 0.1 μg/mL for six hours then vincristine): not observed
cytotoxic activity (survival rate of the cells) ([5]; C3B3-DB alone, 24 hours, HL60-R compared with parent HL60, FIG. 5): cell injury was induced at lower concentrations
cytotoxic activity enhancement of vincristine due to pre-treatment ([5]; HL60-R, C3B3-DB 0.1 μg/mL for six hours then vincristine, FIG. 6): enhanced
cytotoxic activity enhancement of vincristine due to pre-treatment ([6]; BLTH-R, C3B3-DB 0.1 μg/mL for six hours then vincristine, FIG. 6): enhanced
cytotoxic activity (survival rate of the cells) ([6]; C3B3-DB alone, 24 hours, BLTH-R compared with parent BLTH, FIG. 5): cell injury was induced at lower concentrations
MDR1 expression on the cell surface [7]: decrease in some cells
pre-treatment effect on amount of daunorubicin uptake [3, 12]: not observed
pre-treatment effect on amount of daunorubicin uptake [4, 12]: increased the amount of uptake
cell death-inducing activity [8]: strong cell death-inducing activity
cell death-inducing activity [9]: strong cell death-inducing activity
antitumor effects [10]: stronger antitumor effects than 2D7 diabody
survival benefit [11]: significant survival benefit

From patent US20100092461A1, “Remedy For Chemotherapy-Resistant Cancer Containing HLA Class I-Recognizing Antibody as the Active Ingredient and Use of the Same” (CHUGAI SEIYAKU KABUSHIKI KAISHA, priority 2007, published 2010)
